Assays:
THP-1 cell line (CD71+) = assay: Comparative binding on THP-1 cell line by flow cytometry; conditions: biotinylated antibodies, serial dilutions 5 to 0.05 ug/mL, streptavidin Alexa F488
Procedure: (§1) Serial dilutions (5 to 0.05 ug/mL) of both biotinylated antibodies (antibody A24 and antibody of ADC INA01-SDV1) were performed and incubated on THP-1 and MEC-1 cell lines. The binding of the diluted antibodies was detected by Flow cytometry using streptavidin Alexa F488 (available at ThermoFisher scientific).

MEC-1 cell line (CD71+) = assay: Comparative binding on MEC-1 cell line by flow cytometry; conditions: biotinylated antibodies, serial dilutions 5 to 0.05 ug/mL, streptavidin Alexa F488
Procedure: as §1

B1: A24: murine monoclonal anti-human TfR antibody as disclosed in WO 2005/111082 (antibody, listed as Homo sapiens, V domains shown)
VH: QIQLVQSGPELKKPGETVKISCKASGYTFTNQGMNWVKQAPGKGLKWMGWINTYTGEPINADDFKGRFAISLETSASTAYLQINNLKNEDMATYFCVREGWDSMDYWGQGTSVTVSS
VL: QIVLTQSPAIMSASPGEKVTITCSASSSVNYMHWFQQKPGTSPKLWIYSTSNLASGVPARFSGSGSGTSYSLTISRMEAEDAATYYCQQRSSYPLTFGAGTKLELKR
affinity to the CD71+ cell line (binding) (THP-1 cell line (CD71+)): identical affinity
affinity to the CD71+ cell line (binding) (MEC-1 cell line (CD71+)): identical affinity

Source: patent publication US12667625B2, “Antibody-drug conjucates and their uses for the treatment of cancer” (INATHERYS, priority 2018, dated 2026)
